For this data set, the system named is MS2 coat protein. Kind of data set: apparent KD of MS2 coat protein; designed switch direction (-1 OFF switch, 1 ON switch): -1; higher = weaker reporter binding. The method in brief: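 Designed RNA switches were transcribed on Illumina chips by stalled E. coli RNA polymerase and titrated with SNAP-549-labelled MS2 coat protein from 0.7 or 1.5 nM, doubling to 3 µM. Step length ran from 0.8–1.5 h at the lowest concentration to 10–20 min at the highest. The apparent KD is the median over clusters for each design, from curve-fitted normalised cluster fluorescence.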

Setting [1] is: Eterna round: R95, input ligand: FMN 200 uM.
Where [2] appears, read: Eterna round: R95, input ligand: microRNA oligo, concentration not stated.
Setting [3] is: Eterna round: R95, input ligand: none.
Setting [4] is: input ligand: microRNA oligo, concentration not stated.

This is an account of results in the supplement of paper PMC9170038.

In the case of “CUCAUGCCUGAGGAUAUGCUGUACAAAAGUACUGCAGAAGGCAGAACAUGAGGAUCACCCAUGUGGCGAAAGCC [Omei Ex G1] (Eterna round: R97, puzzle: Exclusion 6)”, the “apparent KD of MS2 coat protein” value (input ligand: FMN 200 uM) came to 549 nM and the “apparent KD of MS2 coat protein” value (input ligand: none) came to 106 nM.
In the same order, the values of “CCGGAACAUGAGGAUCACCCAUGUCAGGAUAUCUCAAAAUCGUCGAAAGACGAUAACAAGAGAAGGGACACCGG [Eli x1 4.30] (Eterna round: R97, puzzle: Exclusion 1)” are 20.9 nM and 16.4 nM.
In the same order, the values of “UUUACAAGCUUAUGAUCCCACAUGAGGAUCACCCAUGUUGCUGCCGUGAGGUAGCUUUUAACAUAUGCUCGUCUUAU [JL TOV1 3.39] (Eterna round: R97, puzzle: Sensor, turn-off variant 1)” are 764 nM and 838 nM.
For “GGUUGGCGAGGAUAUACAUGAGGAUCACCCAUGUGAGAGAAAAACGUGAGGAAGAAAAGUAGAAGGCGCUGACG [salish99_ex3_r3_025] (puzzle: Exclusion 3)”, the “apparent KD of MS2 coat protein” value came out at 36.4 nM under setting [1], 81.6 nM under setting [2] and 65.6 nM under setting [3].
In the same order, the values of “AGUUGGCGAGGAUAUACAUGAGGAUCACCCAUGUGAGAGAAAAAAGUGAGGAAGAAAAGUAGAAGGCGCUGACC [salish99_ex3_r3_041] (puzzle: Exclusion 3)” are 245 nM, 49.8 nM and 81.8 nM.
Turning to “ACAGUUCUGCAAGGAUAUCGUUCUAGUUUAGUACGAGAAGGUGCUUUAGUUUUUUCUUUGUGUUGACAUGAGGAUCACCCAUGU [JR_ExcNG1_Sub054] (Eterna round: R96, puzzle: Exclusion NG 1)”, the “apparent KD of MS2 coat protein” value under setting [4] is 17.5 nM.
Turning to “AAUAAUAAGGAGGAUAUCCUAACCGAAAGGUUAGGAGAAGGCCUAACAUGAGGAUCACCCAUGUUCCUCAAUAA [Mat - Exclusion 6 - Eli Mod - D57] (puzzle: Exclusion 6)”, the “apparent KD of MS2 coat protein” value turned out to be 318 nM under setting [1], 236 nM under setting [2] and 118 nM under setting [3].
For “UUAGUGUGAGGAUAUGGUAAAGAUAAGAUGAUGAAAGAACUCCAGAAGGCACAUGAGGAUCACCCAUGUAGAUU [Mat - Exclusion 4 - Mod of JL - D25] (puzzle: Exclusion 4)” the same measures were 53.5 nM, 24.2 nM and 24.2 nM.
On to “GCGUUCUGAGGAUAUACAUGAGGAUCACCCAUGUUGAGAAUUAUGUAUAAAAGAUUAUGUAGAAGGCAGAGUGC [JR_Ex3_Sub071] (Eterna round: R97, puzzle: Exclusion 3)”, for which the “apparent KD of MS2 coat protein” value by setting is: (input ligand: FMN 200 uM) 140 nM; (input ligand: none) 716 nM.
With “CCUCUACAUGAGGAUCACCCAUGUGAGGAUAUCUCGGAACAACCACUUAAGGCACUCCAGAGAAGGCACGUGUA [Onsote] (puzzle: Exclusion 1)”, the “apparent KD of MS2 coat protein” value under setting [2] came out at 15.5 nM.
“UCGUGUAUAGAGGAUAUAUUAAUAUUUAAAACAAUAGAAGGCUAAACAUGAGGAUCACCCAUGUAUUUGGUUUU [JR_Ex6_Sub054] (Eterna round: R97, puzzle: Exclusion 6)”: the “apparent KD of MS2 coat protein” value (input ligand: FMN 200 uM) worked out at 58.4 nM and the “apparent KD of MS2 coat protein” value (input ligand: none) is 20.9 nM.
Regarding “CUGAUGUUAGGAUAUCAGGCACCCGCCACUGGCAGGGCGCAUGAGAAGGGACAUGAGGAUCACCCAUGUAGUAA [Gelaoren] (puzzle: Exclusion 4)”, the “apparent KD of MS2 coat protein” value under setting [2] was 21.3 nM.
As for “GAGUUAACAUGAGGAAUAUACAUGAGGAUCACCCAUGUUAACAAAUUUUUUGCUCGUCUUAUAACAACAAUUAACUC [Alarm 4 - Jieux - Sensor, turn-off variant 1] (Eterna round: R97, puzzle: Sensor, turn-off variant 1)”, the “apparent KD of MS2 coat protein” value came to 434 nM (input ligand: FMN 200 uM) and 206 nM (input ligand: none).
Take “CGAUGUUAUGUCAGGAUAUGCGUUGCGAAAGCAAUGUAGAAGGGACAUGAGGAUCACCCAUGUGCUAACCAUCG [Omei A 10] (puzzle: Brourd's mod of Exclusion 4)”: the “apparent KD of MS2 coat protein” value under setting [2] worked out at 17.2 nM.
Regarding “AGGGACGGCUGAGGAUAUAUGUAGAGUGAGAUAGUAGAAGGCAGACAUGAGGAUCACCCAUGUAUCGGUCCUCAUAUCUCGUAU [Default title] (Eterna round: R96, puzzle: Exclusion NG 1)”, the “apparent KD of MS2 coat protein” value was determined as 14.3 nM (input ligand: FMN 200 uM), 15.9 nM under setting [4] and 17.7 nM (input ligand: none).
In the case of “GAAUAGGCAGGAUAUACAUGAGGAUCACCCAUGUGCUUGCGAUCGGCAAGCGAACAACGUAGAAGGGCCUUAAC [ChP 13.04.2015 #13] (puzzle: Exclusion 3)”, the “apparent KD of MS2 coat protein” value under setting [2] was 15.8 nM.
“AGUACUGACACGUUGGUGUUAGUACAAUAAGCUUGUGACACAUGAGGAUCACCCAUGUCCUCAUAAGCUCGUCUUAU [salish99_TOv2_r2_094] (puzzle: Sensor v3, turn-off variant 2)”: the “apparent KD of MS2 coat protein” value came out at 22 nM under setting [1], 1080 nM under setting [2] and 20.7 nM under setting [3].
In the same order, the values of “GGAAGUAGAAACCGAUCCUACAUGAGGAUCACCCAUGUAGCAAGACGUGCACGCGAAGCUCGUCAGACUACCAGAAC [salish99_TOv1_r3_012] (puzzle: Sensor v3, turn-off variant 1)” are 204 nM, 383 nM and 521 nM.
In the case of “GAGUGACAUGAGGAUCACCCAUGUGAGGAUAUCGGACGGACCUAGUUAACUUCCGCCGCGAGAAGGCACAUCGG [Exclusion 1 V23] (Eterna round: R96, puzzle: Exclusion 1)”, the “apparent KD of MS2 coat protein” value (input ligand: FMN 200 uM) stood at 75.2 nM, the “apparent KD of MS2 coat protein” value under setting [4] was 45.6 nM and the “apparent KD of MS2 coat protein” value (input ligand: none) was 84 nM.
For “CUUGUUUAUGUAGGAUAUGCCUGGCGUGCCUUUGCAGAAGGACAUGAGGAUCACCCAUGUAACAUGAGGCUUACCCUUGUCGCC [salish99_ExNG1_r04_119] (Eterna round: R96, puzzle: Exclusion NG 1)” the same measures were 80.6 nM, 56.1 nM and 68.9 nM.
As to “AAGAUACAUGAGGAUCACCCAUGUGAGGAUAUGAGUCAGUCACGGUGACGUGGCUGACUCAGAAGGCACAAAGG [JL-ex1-4.36 salish99 mod] (Eterna round: R97, puzzle: Exclusion 1)”, the “apparent KD of MS2 coat protein” value by setting is: (input ligand: FMN 200 uM) 176 nM; (input ligand: none) 110 nM.
In the case of “UAAUUAAGUGUGAGGAUAUGCUGGUCCUUGGAUCAGCAGAAGGCACAUGAGGAUCACCCAUGUAAUUUAUUUAU [JL bmx4 3.10] (puzzle: Brourd's mod of Exclusion 4)”, the “apparent KD of MS2 coat protein” value under setting [2] worked out at 78.5 nM.
For “CCAACUAAUUAGGAUAUUAAGGACAUCAGUAAGUAAGAAGGGAUUACAUGAGGAUCACCCAUGUGGUCCUCGGG [Eternabot (L2) Solution 57] (Eterna round: R97, puzzle: Exclusion 6)”, the “apparent KD of MS2 coat protein” value reads like this: (input ligand: FMN 200 uM) 226 nM; (input ligand: none) 147 nM.
On to “GAGGACUGAGGAUAUGCGUUGGUACCUCGUAGUAAGCAAAGACAUGAGGAUCACCCAUGUAGAAGGCGGAAAAG [Xegeinenxe] (puzzle: Exclusion 2)”, for which the “apparent KD of MS2 coat protein” value was found to be 150 nM under setting [1], 58.6 nM under setting [2] and 52.6 nM under setting [3].
Turning to “UAUCUUCAUAUCACAUGAGGAUCACCCAUGUUAUUCAUCUCGUAGGAUAUCGAGGUUUUUUUUUUCGAGAAGGACGUAUUGUUU [JR_ExcNG3_Sub078] (Eterna round: R96, puzzle: Exclusion NG 3)”, the “apparent KD of MS2 coat protein” value by setting is: (input ligand: FMN 200 uM) 183 nM; under setting [4], 159 nM; (input ligand: none) 180 nM.
With “UGCAGACGAGGAUAUGAUUAAUAAUACAUGAGGAUCACCCAUGUAAUACUGAUCUAUGGAUCAGAAGGCGUCUGCA [E5/6-A1] (Eterna round: R97, puzzle: Exclusion 5)”, the “apparent KD of MS2 coat protein” value came to 11.4 nM (input ligand: FMN 200 uM) and 12.9 nM (input ligand: none).
“GGUUGGCGAGGAUAUACAUGAGGAUCACCCAUGUGAGAGAAAGAAGUGAGGAAGAAAAGUAGAAGGCGUUGACG [salish99_ex3_r3_053] (puzzle: Exclusion 3)”: the “apparent KD of MS2 coat protein” value is, setting by setting: under setting [1], 50.6 nM; under setting [2], 55.4 nM; under setting [3], 71.7 nM.
With “CUGUACAUAGGAUAUAGUUGUUUUUACAUGAGGAUCACCCAUGUUACUCCUCUCUCUCUUCUAGAAGGAUGUUUCU [JR_E5_Sub008] (puzzle: Exclusion 5)”, the “apparent KD of MS2 coat protein” value under setting [2] came out at 63.8 nM.
Consider “UCUCCUCCCGUAAGGAUAUUCAUGCGUACCACGCGGAAGAAGGUACAUGAGGAUCACCCAUGUAAUUAACACCG [BmEX4 B.9] (Eterna round: R97, puzzle: Brourd's mod of Exclusion 4)”, for which the “apparent KD of MS2 coat protein” value (input ligand: FMN 200 uM) was 30.7 nM and the “apparent KD of MS2 coat protein” value (input ligand: none) was determined as 24.3 nM.
For “AAUAACAAUGUGAGGAUAUCUAGAGCCUCGGCUCUAGAGAAGGCACAUGAGGAUCACCCAUGUCUCAAUAACAA [BmEx4/2-E7] (Eterna round: R97, puzzle: Brourd's mod of Exclusion 4)” the same measures were 502 nM and 52.7 nM.
On to “AGUACUAACACGCAUGUGUUAGUACAAUAAGCUUGUGAAACAUGAGGAUCACCCAUGUCCUCAUAAGCUCGUCUUAU [salish99_TOv2_r3_068] (puzzle: Sensor v3, turn-off variant 2)”, for which the “apparent KD of MS2 coat protein” value under setting [1] is 17.6 nM, the “apparent KD of MS2 coat protein” value under setting [2] came to 411 nM and the “apparent KD of MS2 coat protein” value under setting [3] was 16.1 nM.
“GAGCCAUCGUGAGAUGGCUAACAUACAUGAGGAUCACCCAUGUAGGAUAUCGAUUGCUUUGCAGUCGAGAAGGACAUGUUUAAU [JL ENG3 3.96] (Eterna round: R96, puzzle: Exclusion NG 3)”: the “apparent KD of MS2 coat protein” value under setting [4] was 19.1 nM.
